Reference: patent publication US20240132485A1, “HETEROCYCLIC CULLIN RING UBIQUITIN LIGASE COMPOUNDS AND USES THEREOF” (CEMM - FORSCHUNGSZENTRUM FÜR MOLEKULARE MEDIZIN GMBH, priority 2020, published 2024)

Key:
[1] = target: Nanoluc_DDB1 (N-terminal Nanoluc luciferase, G4S linker, DDB1 (FL)) (UniProt Q16531); assay: NanoBRET in HEK293T cells, 10 µM compound Example 3-17; class A = greater than 4-fold increase
[2] = target: Nanoluc_DDB1 (N-terminal Nanoluc luciferase, G4S linker, DDB1 (FL)) (UniProt Q16531); assay: NanoBRET in HEK293T cells, 10 µM compound Example 3-6; class C = 2-3 fold increase
[3] = target: Nanoluc_DDB1 (N-terminal Nanoluc luciferase, G4S linker, DDB1 (FL)) (UniProt Q16531); assay: NanoBRET in HEK293T cells, 10 µM compound Example 3-3; class D = 1-2 fold increase
[4] = target: Nanoluc_DDB1 (N-terminal Nanoluc luciferase, G4S linker, DDB1 (FL)) (UniProt Q16531); assay: NanoBRET in HEK293T cells, 10 µM compound Example 3-2; class B = 3-4 fold increase
[5] = target: Nanoluc_DDB1 (N-terminal Nanoluc luciferase, G4S linker, DDB1 (FL)) (UniProt Q16531); assay: NanoBRET in HEK293T cells, 10 µM compound Example 3-25; class B = 3-4 fold increase
[6] = target: Nanoluc_DDB1 (N-terminal Nanoluc luciferase, G4S linker, DDB1 (FL)) (UniProt Q16531); assay: NanoBRET in HEK293T cells, 10 µM compound Example 3-22; class B = 3-4 fold increase
[7] = target: Nanoluc_DDB1 (N-terminal Nanoluc luciferase, G4S linker, DDB1 (FL)) (UniProt Q16531); assay: NanoBRET in HEK293T cells, 10 µM compound Example 3-65; class B = 3-4 fold increase
[8] = target: Nanoluc_DDB1 (N-terminal Nanoluc luciferase, G4S linker, DDB1 (FL)) (UniProt Q16531); assay: NanoBRET in HEK293T cells, 10-point titration of compound Example 3-35; class A = EC50<=0.25 µM
[9] = target: Nanoluc_DDB1 (N-terminal Nanoluc luciferase, G4S linker, DDB1 (FL)) (UniProt Q16531); assay: NanoBRET in HEK293T cells, 10 µM compound Example 3-57; class B = 3-4 fold increase
[10] = target: Nanoluc_DDB1 (N-terminal Nanoluc luciferase, G4S linker, DDB1 (FL)) (UniProt Q16531); assay: NanoBRET in HEK293T cells, 10 µM compound Example 3-30; class C = 2-3 fold increase
[11] = target: Nanoluc_DDB1 (N-terminal Nanoluc luciferase, G4S linker, DDB1 (FL)) (UniProt Q16531); assay: NanoBRET in HEK293T cells, 10-point titration of compound Example 3-3; class E = >10 µM
[12] = target: Nanoluc_DDB1 (N-terminal Nanoluc luciferase, G4S linker, DDB1 (FL)) (UniProt Q16531); assay: NanoBRET in HEK293T cells, 10 µM compound Example 3-11; class A = greater than 4-fold increase
[13] = target: Nanoluc_DDB1 (N-terminal Nanoluc luciferase, G4S linker, DDB1 (FL)) (UniProt Q16531); assay: NanoBRET in HEK293T cells, 10 µM compound Example 3-24; class B = 3-4 fold increase
[14] = target: Nanoluc_DDB1 (N-terminal Nanoluc luciferase, G4S linker, DDB1 (FL)) (UniProt Q16531); assay: NanoBRET in HEK293T cells, 10 µM compound Example 3-21; class B = 3-4 fold increase
[15] = target: Nanoluc_DDB1 (N-terminal Nanoluc luciferase, G4S linker, DDB1 (FL)) (UniProt Q16531); assay: NanoBRET in HEK293T cells, 10 µM compound Example 3-56; class C = 2-3 fold increase
[16] = target: Nanoluc_DDB1 (N-terminal Nanoluc luciferase, G4S linker, DDB1 (FL)) (UniProt Q16531); assay: NanoBRET in HEK293T cells, 10 µM compound Example 3-39; class B = 3-4 fold increase
[17] = target: Nanoluc_DDB1 (N-terminal Nanoluc luciferase, G4S linker, DDB1 (FL)) (UniProt Q16531); assay: NanoBRET in HEK293T cells, 10 µM compound Example 3-46; class B = 3-4 fold increase
[18] = target: Nanoluc_DDB1 (N-terminal Nanoluc luciferase, G4S linker, DDB1 (FL)) (UniProt Q16531); assay: NanoBRET in HEK293T cells, 10-point titration of compound Example 3-22; class E = >10 µM
[19] = target: Nanoluc_DDB1 (N-terminal Nanoluc luciferase, G4S linker, DDB1 (FL)) (UniProt Q16531); assay: NanoBRET in HEK293T cells, 10-point titration of compound Example 3-53; class E = >10 µM
[20] = target: Nanoluc_DDB1 (N-terminal Nanoluc luciferase, G4S linker, DDB1 (FL)) (UniProt Q16531); assay: NanoBRET in HEK293T cells, 10 µM compound Example 3-18; class C = 2-3 fold increase
[21] = target: Nanoluc_DDB1 (N-terminal Nanoluc luciferase, G4S linker, DDB1 (FL)) (UniProt Q16531); assay: NanoBRET in HEK293T cells, 10 µM compound Example 3-47; class A = greater than 4-fold increase
[22] = target: Nanoluc_DDB1 (N-terminal Nanoluc luciferase, G4S linker, DDB1 (FL)) (UniProt Q16531); assay: NanoBRET in HEK293T cells, 10 µM compound Example 3-10; class C = 2-3 fold increase
[23] = target: Nanoluc_DDB1 (N-terminal Nanoluc luciferase, G4S linker, DDB1 (FL)) (UniProt Q16531); assay: NanoBRET in HEK293T cells, 10-point titration of compound Example 3-44; class A = EC50<=0.25 µM
[24] = target: Nanoluc_DDB1 (N-terminal Nanoluc luciferase, G4S linker, DDB1 (FL)) (UniProt Q16531); assay: NanoBRET in HEK293T cells, 10 µM compound Example 3-52; class A = greater than 4-fold increase
[25] = target: Nanoluc_DDB1 (N-terminal Nanoluc luciferase, G4S linker, DDB1 (FL)) (UniProt Q16531); assay: NanoBRET in HEK293T cells, 10 µM compound Example 3-61; class A = greater than 4-fold increase
[26] = target: Nanoluc_DDB1 (N-terminal Nanoluc luciferase, G4S linker, DDB1 (FL)) (UniProt Q16531); assay: NanoBRET in HEK293T cells, 10-point titration of compound Example 3-14; class A = EC50<=0.25 µM

Chain of Nanoluc_DDB1 (N-terminal Nanoluc luciferase, G4S linker, DDB1 (FL)) (Q16531 other isoform, or with tags, fused parts or gaps): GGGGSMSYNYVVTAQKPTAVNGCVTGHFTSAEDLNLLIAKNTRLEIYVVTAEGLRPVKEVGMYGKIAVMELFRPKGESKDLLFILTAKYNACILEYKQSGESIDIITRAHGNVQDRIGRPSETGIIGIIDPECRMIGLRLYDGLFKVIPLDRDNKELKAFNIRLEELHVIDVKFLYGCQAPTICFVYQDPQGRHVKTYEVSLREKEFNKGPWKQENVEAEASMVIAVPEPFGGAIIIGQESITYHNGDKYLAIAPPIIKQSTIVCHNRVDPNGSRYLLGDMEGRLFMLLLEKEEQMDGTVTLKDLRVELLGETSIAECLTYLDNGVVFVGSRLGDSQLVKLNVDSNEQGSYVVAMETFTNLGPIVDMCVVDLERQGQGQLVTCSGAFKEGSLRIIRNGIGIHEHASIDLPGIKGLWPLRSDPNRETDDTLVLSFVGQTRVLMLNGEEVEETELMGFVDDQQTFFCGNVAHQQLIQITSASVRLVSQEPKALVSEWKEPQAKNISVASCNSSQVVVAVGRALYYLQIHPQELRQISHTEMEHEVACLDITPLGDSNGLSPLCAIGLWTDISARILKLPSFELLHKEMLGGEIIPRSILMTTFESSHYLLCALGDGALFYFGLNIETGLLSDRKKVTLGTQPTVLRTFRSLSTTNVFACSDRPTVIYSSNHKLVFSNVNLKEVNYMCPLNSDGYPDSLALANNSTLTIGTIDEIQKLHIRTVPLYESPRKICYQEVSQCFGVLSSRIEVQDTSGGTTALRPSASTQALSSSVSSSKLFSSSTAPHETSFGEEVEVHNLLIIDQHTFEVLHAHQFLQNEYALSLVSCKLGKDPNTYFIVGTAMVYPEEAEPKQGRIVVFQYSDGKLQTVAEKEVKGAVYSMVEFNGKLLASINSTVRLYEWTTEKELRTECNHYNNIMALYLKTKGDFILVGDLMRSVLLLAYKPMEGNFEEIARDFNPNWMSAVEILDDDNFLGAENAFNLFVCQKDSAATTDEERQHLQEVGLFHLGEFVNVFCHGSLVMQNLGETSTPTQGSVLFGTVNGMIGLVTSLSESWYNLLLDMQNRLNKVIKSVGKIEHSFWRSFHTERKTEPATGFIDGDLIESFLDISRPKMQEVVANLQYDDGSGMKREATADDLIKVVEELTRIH

NanoBRET fold increase [1]: > 4 fold
NanoBRET fold increase [2]: 2 to 3 fold
NanoBRET fold increase [3]: 1 to 2 fold
NanoBRET fold increase [4]: 3 to 4 fold
NanoBRET fold increase [5]: 3 to 4 fold
NanoBRET fold increase [6]: 3 to 4 fold
NanoBRET fold increase [7]: 3 to 4 fold
EC50 [8]: < 0.25 µM
NanoBRET fold increase [9]: 3 to 4 fold
NanoBRET fold increase [10]: 2 to 3 fold
EC50 [11]: > 10 µM
NanoBRET fold increase [12]: > 4 fold
NanoBRET fold increase [13]: 3 to 4 fold
NanoBRET fold increase [14]: 3 to 4 fold
NanoBRET fold increase [15]: 2 to 3 fold
NanoBRET fold increase [16]: 3 to 4 fold
NanoBRET fold increase [17]: 3 to 4 fold
EC50 [18]: > 10 µM
EC50 [19]: > 10 µM
NanoBRET fold increase [20]: 2 to 3 fold
NanoBRET fold increase [21]: > 4 fold
NanoBRET fold increase [22]: 2 to 3 fold
EC50 [23]: < 0.25 µM
NanoBRET fold increase [24]: > 4 fold
NanoBRET fold increase [25]: > 4 fold
EC50 [26]: < 0.25 µM
Substance: HaloTag_CDK12 (N-terminal HaloTag, G4S linker, CDK12 (713-1052)) (from UniProt Q9NYV4 713-1052) (enzyme)
